Measurements from patent publication US20250262210A1 (TRUSTEES OF COLUMBIA UNIVERSITY IN THE CITY OF NEW YORK, published 2025).

Legend:
[1] = target: TRRAP (human, UniProt Q9Y4A5 2-3859, limits assumed); test: IP/MS, LZTR1 wild type-FLAG, U87
Procedure, shortened: (§1)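 Extracted peptides in 3% acetonitrile/0.1% formic acid ran on a 50 cm C18 column into an Orbitrap Fusion, with MaxQuant identification and spectral counting.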

[2] = target: T1, NCAPD3 (human, UniProt P42695 1-1498); test: IP/MS, LZTR1 wild type-FLAG, U87
T1 sequence (looked up): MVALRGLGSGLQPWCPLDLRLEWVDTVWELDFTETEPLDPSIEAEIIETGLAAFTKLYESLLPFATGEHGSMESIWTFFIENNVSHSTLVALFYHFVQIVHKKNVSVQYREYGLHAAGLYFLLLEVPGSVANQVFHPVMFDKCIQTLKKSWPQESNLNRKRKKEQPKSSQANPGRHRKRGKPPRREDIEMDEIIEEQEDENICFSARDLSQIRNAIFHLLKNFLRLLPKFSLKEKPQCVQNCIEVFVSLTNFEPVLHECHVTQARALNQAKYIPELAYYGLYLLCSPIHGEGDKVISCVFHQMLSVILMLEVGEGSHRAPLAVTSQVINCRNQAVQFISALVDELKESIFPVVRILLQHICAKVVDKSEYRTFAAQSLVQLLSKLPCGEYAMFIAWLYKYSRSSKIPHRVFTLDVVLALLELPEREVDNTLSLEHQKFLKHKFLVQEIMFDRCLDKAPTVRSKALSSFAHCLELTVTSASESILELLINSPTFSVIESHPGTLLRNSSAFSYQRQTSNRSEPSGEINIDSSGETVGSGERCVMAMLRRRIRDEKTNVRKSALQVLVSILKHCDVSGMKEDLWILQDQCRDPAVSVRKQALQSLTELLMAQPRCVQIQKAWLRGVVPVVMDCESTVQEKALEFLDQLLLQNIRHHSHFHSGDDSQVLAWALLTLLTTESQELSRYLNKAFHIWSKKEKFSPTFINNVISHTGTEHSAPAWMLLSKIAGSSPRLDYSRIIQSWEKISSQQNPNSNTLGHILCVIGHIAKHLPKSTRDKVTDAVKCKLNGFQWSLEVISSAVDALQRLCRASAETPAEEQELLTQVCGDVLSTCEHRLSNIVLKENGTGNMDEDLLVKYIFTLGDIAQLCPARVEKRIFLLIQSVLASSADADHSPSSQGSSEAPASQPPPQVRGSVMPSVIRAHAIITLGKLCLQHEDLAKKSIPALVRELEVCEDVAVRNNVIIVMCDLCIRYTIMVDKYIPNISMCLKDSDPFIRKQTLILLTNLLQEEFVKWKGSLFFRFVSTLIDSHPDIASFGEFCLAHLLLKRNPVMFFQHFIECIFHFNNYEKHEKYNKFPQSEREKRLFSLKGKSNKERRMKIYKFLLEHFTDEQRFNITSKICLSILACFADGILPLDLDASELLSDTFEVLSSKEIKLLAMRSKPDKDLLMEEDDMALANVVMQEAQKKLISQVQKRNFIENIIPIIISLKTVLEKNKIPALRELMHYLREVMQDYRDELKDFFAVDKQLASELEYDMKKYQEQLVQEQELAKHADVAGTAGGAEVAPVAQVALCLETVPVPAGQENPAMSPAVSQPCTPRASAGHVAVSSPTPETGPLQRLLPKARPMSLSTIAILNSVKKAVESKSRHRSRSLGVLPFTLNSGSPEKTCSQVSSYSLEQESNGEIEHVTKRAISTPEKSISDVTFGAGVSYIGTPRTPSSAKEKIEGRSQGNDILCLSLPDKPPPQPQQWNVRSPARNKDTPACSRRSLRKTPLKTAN
Procedure, shortened: as §1

Chain of TRRAP (Q9Y4A5 2-3859 limits assumed): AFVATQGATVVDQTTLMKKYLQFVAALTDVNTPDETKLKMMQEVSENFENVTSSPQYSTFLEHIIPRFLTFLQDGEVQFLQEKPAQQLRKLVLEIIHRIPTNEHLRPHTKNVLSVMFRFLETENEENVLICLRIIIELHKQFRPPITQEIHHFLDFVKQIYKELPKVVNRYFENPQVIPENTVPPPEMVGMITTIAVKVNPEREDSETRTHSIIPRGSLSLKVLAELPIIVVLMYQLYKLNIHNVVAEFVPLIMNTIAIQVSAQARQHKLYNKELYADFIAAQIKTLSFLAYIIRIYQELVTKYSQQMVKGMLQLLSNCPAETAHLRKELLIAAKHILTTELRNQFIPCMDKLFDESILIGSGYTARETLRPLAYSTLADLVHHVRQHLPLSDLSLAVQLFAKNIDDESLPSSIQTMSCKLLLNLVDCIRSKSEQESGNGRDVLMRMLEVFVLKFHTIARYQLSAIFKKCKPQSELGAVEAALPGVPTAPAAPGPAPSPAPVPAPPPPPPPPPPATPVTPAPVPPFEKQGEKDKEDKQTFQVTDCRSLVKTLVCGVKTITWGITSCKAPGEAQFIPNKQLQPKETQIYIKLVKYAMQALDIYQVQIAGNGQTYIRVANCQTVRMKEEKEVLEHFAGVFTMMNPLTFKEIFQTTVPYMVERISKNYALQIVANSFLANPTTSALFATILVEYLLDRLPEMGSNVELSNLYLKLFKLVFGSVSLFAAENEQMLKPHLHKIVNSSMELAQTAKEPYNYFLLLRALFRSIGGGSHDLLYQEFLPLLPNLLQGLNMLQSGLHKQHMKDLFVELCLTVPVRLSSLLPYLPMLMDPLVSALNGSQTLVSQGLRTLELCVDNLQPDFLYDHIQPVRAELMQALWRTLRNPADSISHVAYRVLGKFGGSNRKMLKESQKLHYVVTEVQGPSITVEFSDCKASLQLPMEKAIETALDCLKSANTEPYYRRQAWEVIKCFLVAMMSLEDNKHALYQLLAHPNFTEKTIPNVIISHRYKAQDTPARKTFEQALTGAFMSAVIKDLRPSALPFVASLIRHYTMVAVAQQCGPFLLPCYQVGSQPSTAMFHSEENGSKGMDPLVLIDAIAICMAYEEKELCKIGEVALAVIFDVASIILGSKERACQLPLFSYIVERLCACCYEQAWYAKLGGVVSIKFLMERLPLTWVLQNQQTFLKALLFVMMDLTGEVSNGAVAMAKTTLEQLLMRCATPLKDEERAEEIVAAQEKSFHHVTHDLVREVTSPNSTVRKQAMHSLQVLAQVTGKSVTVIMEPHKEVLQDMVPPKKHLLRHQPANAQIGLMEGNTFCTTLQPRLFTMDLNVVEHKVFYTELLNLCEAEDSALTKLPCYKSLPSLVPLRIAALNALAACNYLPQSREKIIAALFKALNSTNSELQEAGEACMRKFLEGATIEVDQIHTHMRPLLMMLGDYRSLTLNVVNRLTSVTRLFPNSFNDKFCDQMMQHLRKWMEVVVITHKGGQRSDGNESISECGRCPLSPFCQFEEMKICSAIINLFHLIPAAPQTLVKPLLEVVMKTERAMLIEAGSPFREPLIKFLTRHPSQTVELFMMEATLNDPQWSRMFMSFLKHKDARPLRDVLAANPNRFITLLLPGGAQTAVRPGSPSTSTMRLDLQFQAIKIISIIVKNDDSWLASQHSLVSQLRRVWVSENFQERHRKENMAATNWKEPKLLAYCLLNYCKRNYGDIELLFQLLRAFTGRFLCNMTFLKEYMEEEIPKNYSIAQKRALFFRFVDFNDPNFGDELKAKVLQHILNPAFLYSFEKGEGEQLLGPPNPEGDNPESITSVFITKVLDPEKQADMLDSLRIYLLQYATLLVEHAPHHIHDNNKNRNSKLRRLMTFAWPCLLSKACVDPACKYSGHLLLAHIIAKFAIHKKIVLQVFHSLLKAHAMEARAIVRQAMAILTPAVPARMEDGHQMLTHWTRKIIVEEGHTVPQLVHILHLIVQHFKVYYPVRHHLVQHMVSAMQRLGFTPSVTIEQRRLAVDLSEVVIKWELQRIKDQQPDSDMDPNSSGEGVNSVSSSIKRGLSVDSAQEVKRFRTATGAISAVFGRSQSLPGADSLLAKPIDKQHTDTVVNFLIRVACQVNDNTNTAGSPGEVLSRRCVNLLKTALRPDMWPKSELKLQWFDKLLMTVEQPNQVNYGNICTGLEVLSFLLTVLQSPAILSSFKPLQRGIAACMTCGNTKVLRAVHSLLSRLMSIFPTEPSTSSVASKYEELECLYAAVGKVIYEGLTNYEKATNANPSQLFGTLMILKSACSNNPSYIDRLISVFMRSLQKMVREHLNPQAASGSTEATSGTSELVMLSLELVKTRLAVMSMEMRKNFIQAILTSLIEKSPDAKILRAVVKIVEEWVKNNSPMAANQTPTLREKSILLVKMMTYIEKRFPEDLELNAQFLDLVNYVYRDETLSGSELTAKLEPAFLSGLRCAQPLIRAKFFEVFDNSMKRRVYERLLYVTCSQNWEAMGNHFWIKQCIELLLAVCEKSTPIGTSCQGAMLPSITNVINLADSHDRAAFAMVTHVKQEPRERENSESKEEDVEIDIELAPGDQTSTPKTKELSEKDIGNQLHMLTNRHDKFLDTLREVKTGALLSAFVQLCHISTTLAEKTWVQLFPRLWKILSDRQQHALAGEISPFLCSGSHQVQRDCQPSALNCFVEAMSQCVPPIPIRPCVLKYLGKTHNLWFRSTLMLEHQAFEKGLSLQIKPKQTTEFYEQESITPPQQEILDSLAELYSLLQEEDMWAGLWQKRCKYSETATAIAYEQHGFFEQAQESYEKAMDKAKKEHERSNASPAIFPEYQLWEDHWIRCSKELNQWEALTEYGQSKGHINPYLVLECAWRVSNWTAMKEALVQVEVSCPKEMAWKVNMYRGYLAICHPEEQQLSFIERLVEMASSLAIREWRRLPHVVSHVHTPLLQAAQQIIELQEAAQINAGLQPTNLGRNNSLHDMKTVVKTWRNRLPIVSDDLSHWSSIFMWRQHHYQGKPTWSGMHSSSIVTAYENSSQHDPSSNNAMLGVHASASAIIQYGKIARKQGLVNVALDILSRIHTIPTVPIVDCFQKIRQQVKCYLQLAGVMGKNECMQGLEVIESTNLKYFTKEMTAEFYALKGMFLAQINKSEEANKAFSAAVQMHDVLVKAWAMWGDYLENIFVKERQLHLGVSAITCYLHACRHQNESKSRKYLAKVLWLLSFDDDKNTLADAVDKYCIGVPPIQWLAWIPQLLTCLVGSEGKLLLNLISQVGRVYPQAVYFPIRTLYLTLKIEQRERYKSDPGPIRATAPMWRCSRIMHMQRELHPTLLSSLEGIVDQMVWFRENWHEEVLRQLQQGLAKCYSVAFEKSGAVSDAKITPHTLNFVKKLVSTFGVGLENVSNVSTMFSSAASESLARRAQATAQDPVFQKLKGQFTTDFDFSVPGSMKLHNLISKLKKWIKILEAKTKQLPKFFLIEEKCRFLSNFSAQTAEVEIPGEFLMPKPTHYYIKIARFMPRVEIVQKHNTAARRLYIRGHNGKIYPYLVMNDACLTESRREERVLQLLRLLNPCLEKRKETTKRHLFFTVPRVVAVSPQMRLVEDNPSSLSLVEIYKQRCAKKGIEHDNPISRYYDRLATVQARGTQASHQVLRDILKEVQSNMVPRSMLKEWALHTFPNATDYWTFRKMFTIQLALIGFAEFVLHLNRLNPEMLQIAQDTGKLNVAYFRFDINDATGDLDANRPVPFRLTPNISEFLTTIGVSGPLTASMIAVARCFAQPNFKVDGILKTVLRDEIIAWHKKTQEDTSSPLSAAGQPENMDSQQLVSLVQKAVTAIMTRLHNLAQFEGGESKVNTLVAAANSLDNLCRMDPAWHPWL

B1: LZTR1-FLAG (other, human, UniProt Q8N653 1-840, looked up)
chain: MAGPGSTGGQIGAAALAGGARSKVAPSVDFDHSCSDSVEYLTLNFGPFETVHRWRRLPPCDEFVGARRSKHTVVAYKDAIYVFGGDNGKTMLNDLLRFDVKDCSWCRAFTTGTPPAPRYHHSAVVYGSSMFVFGGYTGDIYSNSNLKNKNDLFEYKFATGQWTEWKIEGRLPVARSAHGATVYSDKLWIFAGYDGNARLNDMWTIGLQDRELTCWEEVAQSGEIPPSCCNFPVAVCRDKMFVFSGQSGAKITNNLFQFEFKDKTWTRIPTEHLLRGSPPPPQRRYGHTMVAFDRHLYVFGGAADNTLPNELHCYDVDFQTWEVVQPSSDSEVGGAEVPERACASEEVPTLTYEERVGFKKSRDVFGLDFGTTSAKQPTQPASELPSGRLFHAAAVISDAMYIFGGTVDNNIRSGEMYRFQFSCYPKCTLHEDYGRLWESRQFCDVEFVLGEKEECVQGHVAIVTARSRWLRRKITQARERLAQKLEQEAAPVPREAPGVAAGGARPPLLHVAIREAEARPFEVLMQFLYTDKIKYPRKGHVEDVLLIMDVYKLALSFQLCRLEQLCRQYIEASVDLQNVLVVCESAARLQLSQLKEHCLNFVVKESHFNQVIMMKEFERLSSPLIVEIVRRKQQPPPRTPLDQPVDIGTSLIQDMKAYLEGAGAEFCDITLLLDGHPRPAHKAILAARSSYFEAMFRSFMPEDGQVNISIGEMVPSRQAFESMLRYIYYGEVNMPPEDSLYLFAAPYYYGFYNNRLQAYCKQNLEMNVTVQNVLQILEAADKTQALDMKRHCLHIIVHQFTKVSKLPTLRSLSQQLLLDIIDSLASHISDKQCAELGADI
notes: Expressed in HEK 293T, HeLa or U87 cells; used as cell lysate; also called LZTR1 wild type-FLAG; LZTR1 WT; not shown: FLAG tag at the C-terminus
[1]
  binding result: binds
[2]
  binding result: binds
